From patent publication CN115806612A (SHENZHEN KANGTI BIOMEDICAL TECH CO LTD, dated 2023)

Target: APP蛋白 (amyloid precursor protein, APP)
Test: SPR

APP蛋白 (amyloid precursor protein, APP), sequence (chain, as listed by the source): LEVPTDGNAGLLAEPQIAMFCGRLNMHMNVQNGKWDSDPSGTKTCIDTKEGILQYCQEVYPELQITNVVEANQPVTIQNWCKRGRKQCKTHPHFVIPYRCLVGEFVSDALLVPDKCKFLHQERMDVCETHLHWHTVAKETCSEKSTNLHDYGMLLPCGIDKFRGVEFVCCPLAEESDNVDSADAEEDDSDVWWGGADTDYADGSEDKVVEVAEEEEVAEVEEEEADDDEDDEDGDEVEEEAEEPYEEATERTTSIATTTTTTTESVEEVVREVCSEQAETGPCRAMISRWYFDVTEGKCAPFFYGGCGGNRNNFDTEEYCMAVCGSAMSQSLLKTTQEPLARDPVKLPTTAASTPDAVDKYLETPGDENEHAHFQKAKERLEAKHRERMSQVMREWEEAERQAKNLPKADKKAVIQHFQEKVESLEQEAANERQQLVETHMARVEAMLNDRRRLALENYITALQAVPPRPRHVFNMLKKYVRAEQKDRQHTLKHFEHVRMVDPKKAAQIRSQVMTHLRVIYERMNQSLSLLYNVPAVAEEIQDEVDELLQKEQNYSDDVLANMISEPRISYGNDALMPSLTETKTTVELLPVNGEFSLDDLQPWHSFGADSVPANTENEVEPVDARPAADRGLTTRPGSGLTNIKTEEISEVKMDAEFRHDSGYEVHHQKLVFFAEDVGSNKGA

- Kd: 70 nM
- koff: 0.00921 s⁻¹
- kon: 130000 M⁻¹ s⁻¹
B1: 纳米抗体P2-10C (anti-APP nanobody P2-10C) (VHH)
VHH: DVQLQESGGGLVQPGGSLRLSCAASGIIFSGYYMSWVRQAPGKGPEWVSSINPSGSSTRYADSVKGRFTISRDNAKNTVYLQMYSLKPEDTALYYCSRSRDGLGDVRGQGTQVTVSS
notes: Monovalent alpaca VHH expressed from pET22b in E. coli BL21 and purified on Ni resin and by size exclusion; also called 抗APP的纳米抗体; 抗APP单域重链抗体
